{"source": "patent US10668186B2", "about": "“Quenched coating” (Original G B.V., priority 2014, dated 2020)", "key": {"[1]": {"molecular_target": "V8 protease (Endoproteinase Glu-C from Staphylococcus aureus V8) (Staphylococcus aureus, UniProt P0C1U8)", "sequence (P0C1U8 69-336)": "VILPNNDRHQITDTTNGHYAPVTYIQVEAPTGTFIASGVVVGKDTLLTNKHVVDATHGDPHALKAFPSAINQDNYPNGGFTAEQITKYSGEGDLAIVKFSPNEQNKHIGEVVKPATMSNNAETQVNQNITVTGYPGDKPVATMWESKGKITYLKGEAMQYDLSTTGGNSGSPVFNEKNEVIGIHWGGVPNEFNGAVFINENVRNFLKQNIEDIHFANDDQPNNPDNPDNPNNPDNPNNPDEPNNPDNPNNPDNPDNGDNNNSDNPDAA", "settings": "in solution, excitation 720 nm", "method": "Bacterial protease was obtained from Sigma-Aldrich (Endoproteinase Glu-C from Staphylococcus aureus V8, P2922 SIGMA), also named ‘protease V8’ or ‘V8’ in this document.\nThe cleavage of peptide 1 in the presence of V8 protease and GranzymB protease was monitored in solution by luminescence spectroscopy. Photo-luminescence spectra were measured on a Perkin-Elmer Luminescence Spectrometer LS50 B. Spectra were recorded from 250 to 900 nm, using an excitation wavelength of 720 nm and applying a slit width of 15 nm.\nThe digestion in solution was performed in a glass vial. 100 μL of stock solution of peptide 1 (10 mg/mL) was diluted with 625 μL H2O and 250 μL 100 mM phosphate buffer solution (pH=7.8). A sample of 10 μL was taken at t=0. Then, 50 μL of V8 or Granzyme B protease stock solution (25 units, ±25 μg) was added, the mixture shaken and was kept at room temperature. […] At various time points (30 s, 2, 5, 10, 15, 20, 25, 30, 40, 50, 60, 90, 120, 150 and 180 min., and at 18H) a 10 μL incubate sample was taken and was diluted with 3 mL of water. The prepared diluted samples were measured by luminescence spectroscopy, so as to monitor the digestive cleavage of peptide 1. As blanks, cuvettes with water and the same amount of DMSO as the sample solution were used."}, "[2]": {"molecular_target": "T1, Granzyme B, Human, Recombinant (Homo sapiens, UniProt P10144)", "T1 construct": "purchased MerckMillepore 368043; host or cells: E. coli", "T1 sequence (P10144 21-247)": "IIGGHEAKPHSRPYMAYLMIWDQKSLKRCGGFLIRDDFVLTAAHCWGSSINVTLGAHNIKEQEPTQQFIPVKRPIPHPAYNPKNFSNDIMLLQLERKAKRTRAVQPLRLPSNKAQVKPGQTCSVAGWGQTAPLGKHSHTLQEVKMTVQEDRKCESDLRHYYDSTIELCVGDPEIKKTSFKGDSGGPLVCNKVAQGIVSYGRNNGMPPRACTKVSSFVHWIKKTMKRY", "assay": "Digestion of peptide 1 in solution monitored by luminescence spectroscopy (Granzyme B)", "assay_type": "biochemical", "settings": "presence of Granzyme B", "text": "Human recombinant protease was obtained from MerckMillepore (368043 Granzyme B, Human, Recombinant, E. coli)."}, "V8 protease": {"molecular_target": "V8 protease (Staphylococcus aureus, UniProt P0C1U8)", "sequence (P0C1U8 69-336)": "as the sequence (P0C1U8 69-336) above", "settings": "surface bound, Odyssey CLX, exciting at 800 nm", "method": "The resulting solution (50 μL) was pipetted onto the glass slide, and the slide was kept in a humidified environment for 1H. The droplet was washed off by rinsing 3× with 1 mL DMSO:H2O 80/20; thereafter, the slide was placed in a washing solution of DMSO:H2O 80/20 and was gently agitated for 1 minute. The washing solution was rinsed off with water (5×1 mL) and the slide was dried by a flow of nitrogen.\nLi-Cor Odyssey CLX equipment was used on site at Westburg (Leusden, N L; Timo Kreike, Moniek Kors). All Odyssey CLX measurements were taken by exciting at 800 nm."}, "S. aureus": {"tested_on": "S. aureus", "assay": "Coated catheter S. aureus challenge, near infrared fluorescence imaging", "assay_type": "cell-based", "settings": "for Coating response to S. aureus challenge: coated Foley silicone catheter, 2×10^6 CFU ml^−1 S. aureus, 4 hours, excitation 710 nm, emission 800 nm; for detection of S. aureus (in words): coated catheter, S. aureus challenge", "method": "The catheter used was a 14F silicone Foley Catheter which was provided in 6 mm lengths and having a diameter of 4.2 mm. An aqueous slurry of each polymer coating was prepared and each piece of catheter plunged into the slurry mixture. The coated catheters were stored at 20° C. in the dark for 15 minutes prior to repeating the dipping procedure. The process was repeated four times in total. After the final coating, the coated catheters were stored at 35° C. for 48 hours to facilitate drying of the coating. Each coated catheter and one none coated catheter as control, were incubated in the presence of 2×10^6 colony-forming units (CFU) ml^−1 of S. auereus for 4 hours. […] The results obtained from the IVIS Spectrum and IVIS Lumina II were analyzed with Living Image 4.2. (Caliper L S, Hopkinton Mass., USA). Optimal detection limits were set to the lowest signal at which positive signal was effortlessly discriminated from negative controls. Signal intensity was determined by drawing regions of interests (ROI's) and measuring average counts in these regions. The signal was corrected for background by subtracting the background signal from the signal of interest, referred to in the text as net counts. A strong near infrared signal was, attributed to the first fluorescent agent."}}, "note": "Where two headings read alike, the source gives them in different places. Primed or numbered codes have the meaning given here. Where no end group is shown, it is not given here. code X = (S)-5-azido-2-(Fmoc-amino)pentanoic acid (δ-azido-L-norvaline); Orn(N3) = [N-]=[N+]=NCCC[C@H](N)C(=O)O; IRDye800CW′ = not defined here; IRDyeQC‑1 = quencher label; IRDye800RS = dye label; Pol = MeO-PEG-alkyne", "data": [{"substance": "Ac-X-[K(IRDye800RS)]-GLLEFRIVAK(IRDye800RS)-amide ({Ac-Orn(N3)-K(IRDye800RS)}-GLLEFRIVAK(IRDye800RS)-NH2) [Peptide 1]", "values": [{"measurement": "background fluorescence", "setting": "[1]; absence of V8 protease", "result": "around 1 AU"}, {"measurement": "fluorescence intensity", "setting": "[1]; after 30 s of adding V8 protease", "result": 4, "unit": "AU"}, {"measurement": "fluorescence intensity", "setting": "[1]; within 6 minutes of adding V8 protease", "result": 6, "unit": "AU"}, {"measurement": "cleavage by Granzyme B", "setting": "[2]", "result": "not cut"}, {"measurement": "background fluorescence", "setting": "[2]; maintained throughout the experiment", "result": 1, "unit": "AU"}, {"measurement": "intensity", "setting": "V8 protease; before V8 protease", "result": "circa 6000 units"}, {"measurement": "intensity", "setting": "V8 protease; in the presence of V8 protease", "result": 25000, "unit": "units"}]}, {"substance": "Ac-(IRDye800CW)CG-(Pol)-X-LLEFRIVAK(IRDyeQC-1) ({Ac-Cys(IRDye800CW)-Gly-Pol-code X}-LLEFRIVAK(IRDyeQC‑1); also: MeO-PEG) [Example 5.4]", "values": [{"measurement": "Coating response to S. aureus challenge", "setting": "S. aureus", "result": "++"}, {"measurement": "detection of S. aureus (in words)", "setting": "S. aureus", "result": "very good detection"}]}, {"substance": "G-(Pol)-X-LLEFRIVAC-IRDye800CW (LLEFRIVAC-{IRDye800CW′}; not fully specified (residue 9, N-terminus); also: MeO-PEG) [Example 5.2, comparative, no non-fluorescent agent, reference compound]", "values": [{"measurement": "Coating response to S. aureus challenge", "setting": "S. aureus", "result": "−"}, {"measurement": "detection of S. aureus (in words)", "setting": "S. aureus", "result": "only a small change in intensity in emitted light is detected"}]}, {"substance": "(IRDye800RS)-KG-(Pol)-X-LLEFRIVAK(IRDye800RS) ({IRDye800RS-Lys-Gly-Pol-code X}-LLEFRIVAK(IRDye800RS); also: MeO-PEG) [Example 5.3]", "values": [{"measurement": "Coating response to S. aureus challenge", "setting": "S. aureus", "result": "+"}, {"measurement": "detection of S. aureus (in words)", "setting": "S. aureus", "result": "only a weak signal is detected"}]}]}
